Reference: patent publication US20210324099A1 (Chugai, published 2021)

T1: hFcgRIIaR (human, UniProt P12318 34-217)
T1 construct: extracellular domain; also called human FcγRIIa type R (R131)
T1 sequence (looked up): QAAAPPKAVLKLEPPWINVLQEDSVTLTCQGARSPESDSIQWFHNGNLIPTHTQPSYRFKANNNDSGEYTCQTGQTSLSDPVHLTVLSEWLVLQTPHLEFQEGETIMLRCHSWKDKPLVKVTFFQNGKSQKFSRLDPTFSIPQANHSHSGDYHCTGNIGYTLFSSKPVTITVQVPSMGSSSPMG

T2: hFcgRIIaH (human, UniProt P12318 34-217)
T2 construct: extracellular domain; also called human FcγRIIa type H (H131)
T2 sequence (looked up): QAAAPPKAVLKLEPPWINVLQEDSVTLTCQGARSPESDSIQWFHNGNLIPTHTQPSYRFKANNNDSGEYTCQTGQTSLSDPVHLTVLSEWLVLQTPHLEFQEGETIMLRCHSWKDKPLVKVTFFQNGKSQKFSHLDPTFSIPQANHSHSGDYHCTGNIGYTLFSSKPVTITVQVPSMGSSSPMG

T3: hFcgRIIb (human, UniProt P31994 43-217)
T3 construct: extracellular domain; also called human FcγRIIb
T3 sequence (looked up): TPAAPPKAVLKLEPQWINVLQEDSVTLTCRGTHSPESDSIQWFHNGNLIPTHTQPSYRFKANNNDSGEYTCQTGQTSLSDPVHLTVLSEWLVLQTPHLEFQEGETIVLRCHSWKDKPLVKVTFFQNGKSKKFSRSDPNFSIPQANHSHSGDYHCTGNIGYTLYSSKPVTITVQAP


Experiments:
human FcRn = human FcRn (human, UniProt P55899 24-290; P61769 21-119, limits assumed); test: SPR 25C pH 6.0, steady state;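 further: antibody captured on chip via anti-human Fab-lambda ligand, human FcRn injected as analyte in 50 mM phosphate buffer with 150 mM NaCl and P20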
hFcgRIIIaF [1] = target: T4, hFcgRIIIaF (human, UniProt P08637 17-208); test: SPR 25C
T4 construct: extracellular domain; also called human FcγRIIIa allotype F158

hFcgRIa [2] = target: T5, hFcgRIa (human, UniProt P12314 16-292); test: SPR 25C
T5 construct: extracellular domain; also called human FcγRIa; FcγRI

hFcgRIIaR [3] = target: T1, hFcgRIIaR; test: SPR 25C
hFcgRIIIaV [4] = target: T6, hFcgRIIIaV (human, UniProt P08637 17-208); test: SPR 25C
T6 construct: extracellular domain; also called human FcγRIIIa allotype V158

hFcgRIIaH [5] = target: T2, hFcgRIIaH; test: SPR 25C
hFcgRIIb [6] = target: T3, hFcgRIIb; test: SPR 25C
hFcgRIIIaF [7] = target: T4, hFcgRIIIaF; test: SPR 25C; relative to A375-G1T3/B167-Lamlib;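 further: SPR with antibody captured on an anti-human Fab-lambda chip, human FcγR analyte at 8 nM for FcγRIa or 1000 nM for the others, pH 7.4, FcγR RU per captured antibody unit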
Description: (§1) Biacore T200 (GE Healthcare) was used to evaluate the binding activity to the respective human Fcγ receptor (hereafter referred to as FcγR). Measurement was performed at 25° C. using 50 mM phosphate, 150 mM NaCl, 0.05 w/v %-P20, pH 7.4 as buffer. About 1000 RU of antibody was captured using a sensor chip immobilized with CaptureSelect™ Human Fab-lambda Kinetics Biotin Conjugate (Thermo Fisher Scientific) as a molecule for ligand capturing. Human FcγR was diluted to 8 nM for FcγRIa and 1000 nM for other FcγR in the measurement buffer, and it was interacted to the captured antibody. The binding activity of each antibody to FcγR was assessed by calculating the binding amount of FcγR (RU) per unit amount of antibody using Biacore T200 Evaluation Software 2.0.

hFcgRIa [8] = target: T5, hFcgRIa; test: SPR 25C; relative to A375-G1T3/B167-Lamlib;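 further: SPR with antibody captured on an anti-human Fab-lambda chip, human FcγR analyte at 8 nM for FcγRIa or 1000 nM for the others, pH 7.4, FcγR RU per captured antibody unit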
Description: as §1

hFcgRIIaR [9] = target: T1, hFcgRIIaR; test: SPR 25C; relative to A375-G1T3/B167-Lamlib;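 further: SPR with antibody captured on an anti-human Fab-lambda chip, human FcγR analyte at 8 nM for FcγRIa or 1000 nM for the others, pH 7.4, FcγR RU per captured antibody unit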
Description: as §1

hFcgRIIIaV [10] = target: T6, hFcgRIIIaV; test: SPR 25C; relative to A375-G1T3/B167-Lamlib;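 further: SPR with antibody captured on an anti-human Fab-lambda chip, human FcγR analyte at 8 nM for FcγRIa or 1000 nM for the others, pH 7.4, FcγR RU per captured antibody unit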
Description: as §1

hFcgRIIaH [11] = target: T2, hFcgRIIaH; test: SPR 25C; relative to A375-G1T3/B167-Lamlib
Description: as §1

hFcgRIIb [12] = target: T3, hFcgRIIb; test: SPR 25C; relative to A375-G1T3/B167-Lamlib
Description: as §1
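Wherever binding per 1RU of antibody is given: biacore SPR with antibody captured on an anti-human Fab lambda chip, human FcγR injected at 1000 nM (FcγRIa at 8 nM) in pH 7.4 phosphate buffer.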

T4 sequence (P08637 17-208): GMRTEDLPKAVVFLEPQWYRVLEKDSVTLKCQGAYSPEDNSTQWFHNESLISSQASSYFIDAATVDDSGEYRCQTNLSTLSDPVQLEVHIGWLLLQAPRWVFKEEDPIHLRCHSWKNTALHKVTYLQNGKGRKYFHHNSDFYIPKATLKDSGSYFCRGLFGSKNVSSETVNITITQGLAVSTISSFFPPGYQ
T6 sequence (P08637 17-208 F176V): as the sequence (P08637 17-208) above, with F160V counted along it
T5 sequence (P12314 16-292): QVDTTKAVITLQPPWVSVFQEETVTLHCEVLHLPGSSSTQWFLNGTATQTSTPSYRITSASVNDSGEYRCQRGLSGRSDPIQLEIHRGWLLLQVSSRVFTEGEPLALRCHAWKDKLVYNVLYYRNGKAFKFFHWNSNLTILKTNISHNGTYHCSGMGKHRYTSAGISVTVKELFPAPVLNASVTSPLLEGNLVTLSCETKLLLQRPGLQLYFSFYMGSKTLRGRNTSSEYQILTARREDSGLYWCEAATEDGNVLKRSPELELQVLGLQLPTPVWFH

| Kd (human FcRn) [nM] | binding per 1RU of antibody (hFcgRIIIaF [1]) [RU] | binding per 1RU of antibody (hFcgRIa [2]) [RU] | binding per 1RU of antibody (hFcgRIIaR [3]) [RU] | binding per 1RU of antibody (hFcgRIIIaV [4]) [RU] | binding per 1RU of antibody (hFcgRIIaH [5]) [RU] | binding per 1RU of antibody (hFcgRIIb [6]) [RU] | relative binding amount (hFcgRIIIaF [7]) | relative binding amount (hFcgRIa [8]) | relative binding amount (hFcgRIIaR [9]) | relative binding amount (hFcgRIIIaV [10]) | relative binding amount (hFcgRIIaH [11]) | relative binding amount (hFcgRIIb [12]) | Binder |
| --- | --- | --- | --- | --- | --- | --- | --- | --- | --- | --- | --- | --- | --- |
| 874 | 0 | 0.0033 | 0.0255 | 0.0002 | 0.0103 | 0.0979 | 0 | 0.04 | 0.55 | 0 | 0.18 | 8.94 | A375-SCF033/B167-Lamlib (antibody, human IgG1, lambda) heavy: EVQLVESGGGLVKPGGSLRLSCAASGFTFSTFTMNWVRQAPGKGLEWVSSISSKSTYIEYADSFKVRFTISRDNAKNSLYLQMNSLRAEDTAVYYCARYGAKNFLNWVFDYWGQGTLVTVSSASTKGPSVFPLAPSSKSTSGGTAALGCLVKDYFPEPVTVSWNSGALTSGVHTFPAVLQSSGLYSLSSVVTVPSSSLGTQTYICNVNHKPSNTKVDKKVEPKSCDKTHTCPPCPAPEYLGDDSVFLFPPKPKDVLMISRTPEVTCVVVDVSHEDPEVKFNWYVDGVEVHNAKTKPREEQYNSTYRVVSVLPVLHRDWLNGKEYKCKVSNKALPKPIEKTISKAKGQRREPQVYTLPPSREEMTKNQVSLTCLVKGFYPSDIAVEWESNGQPENNYKTTPPVLDSDGSFFLYSKLTVDKSRWQQGNVFSCSVMHEALHNHYTQKSLSLSP light: QSALTQPPSASGSPGQTVTISCTGTRYDVGYYEYVSWYQQHPGKAPKLMIYETSKRLSGVPDRFSGSKSGNTASLTVSGLQAEDEADYYCSSYRYEHQVSFGGGTKLTVLGQPKAAPSVTLFPPSSEELQANKATLVCLISDFYPGAVTVAWKADSSPVKAGVETTTPSKQSNNKYAASSYLSLTPEQWKSHRSYSCQVTHEGSTVEKTVAPTECS |
| 966 | -0.0007 | 0.0049 | -0.0004 | -0.0007 | 0.003 | 0.0782 | -0.03 | 0.06 | -0.01 | -0.01 | 0.05 | 7.14 | A375-SCF032/B167-Lamlib (antibody, human IgG1, lambda) heavy: EVQLVESGGGLVKPGGSLRLSCAASGFTFSTFTMNWVRQAPGKGLEWVSSISSKSTYIEYADSFKVRFTISRDNAKNSLYLQMNSLRAEDTAVYYCARYGAKNFLNWVFDYWGQGTLVTVSSASTKGPSVFPLAPSSKSTSGGTAALGCLVKDYFPEPVTVSWNSGALTSGVHTFPAVLQSSGLYSLSSVVTVPSSSLGTQTYICNVNHKPSNTKVDKKVEPKSCDKTHTCPPCPAPEYLGGDSVFLFPPKPKDVLMISRTPEVTCVVIDVSHEDPEVKFNWYVDGVEVHNAKTKPREEQYNSTYRVVSVLPVLHRDWLNGKEYKCKVSNKALPKPIEKTISKAKGQRREPQVYTLPPSREEMTKNQVSLTCLVKGFYPSDIAVEWESNGQPENNYKTTPPVLDSDGSFFLYSKLTVDKSRWQQGNVFSCSVMHEALHNHYTQKSLSLSP light: QSALTQPPSASGSPGQTVTISCTGTRYDVGYYEYVSWYQQHPGKAPKLMIYETSKRLSGVPDRFSGSKSGNTASLTVSGLQAEDEADYYCSSYRYEHQVSFGGGTKLTVLGQPKAAPSVTLFPPSSEELQANKATLVCLISDFYPGAVTVAWKADSSPVKAGVETTTPSKQSNNKYAASSYLSLTPEQWKSHRSYSCQVTHEGSTVEKTVAPTECS |

Further lines, the binder ahead of its results:

| Binder | Kd (human FcRn) [nM] | binding per 1RU of antibody (hFcgRIIIaF [1]) [RU] | binding per 1RU of antibody (hFcgRIa [2]) [RU] | binding per 1RU of antibody (hFcgRIIaR [3]) [RU] | binding per 1RU of antibody (hFcgRIIIaV [4]) [RU] | binding per 1RU of antibody (hFcgRIIaH [5]) [RU] | binding per 1RU of antibody (hFcgRIIb [6]) [RU] | relative binding amount (hFcgRIIIaF [7]) | relative binding amount (hFcgRIa [8]) | relative binding amount (hFcgRIIaR [9]) | relative binding amount (hFcgRIIIaV [10]) | relative binding amount (hFcgRIIaH [11]) | relative binding amount (hFcgRIIb [12]) |
| --- | --- | --- | --- | --- | --- | --- | --- | --- | --- | --- | --- | --- | --- |
| A375-SCF027/B167-Lamlib (antibody, human IgG1, lambda, also called A375-SCF027/B167-LamLab) heavy: EVQLVESGGGLVKPGGSLRLSCAASGFTFSTFTMNWVRQAPGKGLEWVSSISSKSTYIEYADSFKVRFTISRDNAKNSLYLQMNSLRAEDTAVYYCARYGAKNFLNWVFDYWGQGTLVTVSSASTKGPSVFPLAPSSKSTSGGTAALGCLVKDYFPEPVTVSWNSGALTSGVHTFPAVLQSSGLYSLSSVVTVPSSSLGTQTYICNVNHKPSNTKVDKKVEPKSCDKTHTCPPCPAPEYLGGDSVFLFPPKPKDVLMISRTPEVTCVVIDVSHEDPEVKFNWYVDGVEVHNAKTKPREEQYNSTYRVVSVLPVLHQDWLNGKEYKCKVSNKALPKPIEKTISKAKGQRREPQVYTLPPSREEMTKNQVSLTCLVKGFYPSDIAVEWESNGQPENNYKTTPPVLDSDGSFFLYSKLTVKKSRWQQGNVFSCSVMHEALHNHYTQKSLSLSP light: QSALTQPPSASGSPGQTVTISCTGTRYDVGYYEYVSWYQQHPGKAPKLMIYETSKRLSGVPDRFSGSKSGNTASLTVSGLQAEDEADYYCSSYRYEHQVSFGGGTKLTVLGQPKAAPSVTLFPPSSEELQANKATLVCLISDFYPGAVTVAWKADSSPVKAGVETTTPSKQSNNKYAASSYLSLTPEQWKSHRSYSCQVTHEGSTVEKTVAPTECS | 1330 | -0.0005 | 0.0044 | 0.0058 | -0.0006 | 0.0031 | 0.0766 | -0.02 | 0.05 | 0.12 | -0.01 | 0.06 | 6.99 |
| A375-SCF030/B167-Lamlib (antibody, human IgG1, lambda) heavy: EVQLVESGGGLVKPGGSLRLSCAASGFTFSTFTMNWVRQAPGKGLEWVSSISSKSTYIEYADSFKVRFTISRDNAKNSLYLQMNSLRAEDTAVYYCARYGAKNFLNWVFDYWGQGTLVTVSSASTKGPSVFPLAPSSKSTSGGTAALGCLVKDYFPEPVTVSWNSGALTSGVHTFPAVLQSSGLYSLSSVVTVPSSSLGTQTYICNVNHKPSNTKVDKKVEPKSCDKTHTCPPCPAPELWNGPSVFLFPPKPKDTLMISRTPEVTCVVVDVSDEDPEVKFNWYVDGVEVHNAKTKPREELYNSTYRVVSVLTVLHRDWLNGKEYKCKVSNTALPKPIEKTISKAKGQRREPQVYTLPPSREEMTKNQVSLTCLVKGFYPSDIAVEWESNGQPENNYKTTPPVLDSDGSFFLYSKLTVDKSRWQQGNVFSCSVMHEALHNHYTQKSLSLSP light: QSALTQPPSASGSPGQTVTISCTGTRYDVGYYEYVSWYQQHPGKAPKLMIYETSKRLSGVPDRFSGSKSGNTASLTVSGLQAEDEADYYCSSYRYEHQVSFGGGTKLTVLGQPKAAPSVTLFPPSSEELQANKATLVCLISDFYPGAVTVAWKADSSPVKAGVETTTPSKQSNNKYAASSYLSLTPEQWKSHRSYSCQVTHEGSTVEKTVAPTECS | 863 | 0.0017 | 0.002 | 0.0532 | 0.002 | 0.0533 | 0.0532 | 0.08 | 0.02 | 1.15 | 0.03 | 0.94 | 4.85 |
| A375-SCF028/B167-Lamlib (antibody, human IgG1, lambda) heavy: EVQLVESGGGLVKPGGSLRLSCAASGFTFSTFTMNWVRQAPGKGLEWVSSISSKSTYIEYADSFKVRFTISRDNAKNSLYLQMNSLRAEDTAVYYCARYGAKNFLNWVFDYWGQGTLVTVSSASTKGPSVFPLAPSSKSTSGGTAALGCLVKDYFPEPVTVSWNSGALTSGVHTFPAVLQSSGLYSLSSVVTVPSSSLGTQTYICNVNHKPSNTKVDKKVEPKSCDKTHTCPPCPAPEYLGDDSVFLFPPKPKDVLMISRTPEVTCVVVDVSHEDPEVKFNWYVDGVEVHNAKTKPREEQYNSTYRVVSVLPVLHQDWLNGKEYKCKVSNKALPKPIEKTISKAKGQRREPQVYTLPPSREEMTKNQVSLTCLVKGFYPSDIAVEWESNGQPENNYKTTPPVLDSDGSFFLYSKLTVKKSRWQQGNVFSCSVMHEALHNHYTQKSLSLSP light: QSALTQPPSASGSPGQTVTISCTGTRYDVGYYEYVSWYQQHPGKAPKLMIYETSKRLSGVPDRFSGSKSGNTASLTVSGLQAEDEADYYCSSYRYEHQVSFGGGTKLTVLGQPKAAPSVTLFPPSSEELQANKATLVCLISDFYPGAVTVAWKADSSPVKAGVETTTPSKQSNNKYAASSYLSLTPEQWKSHRSYSCQVTHEGSTVEKTVAPTECS | 1270 | -0.0009 | 0.0027 | 0.0299 | -0.001 | 0.0101 | 0.0995 | -0.04 | 0.03 | 0.64 | -0.01 | 0.18 | 9.08 |
